According to US20210363177A1:

How the values were obtained:
[1] = biological target: Trastuzumab (glycan-intact) (Homo sapiens)

Row | % DOL 2 (fraction of antibody fully modified with 3-APA, LC-MS) [1] [%] | % DOL 2 (fraction of antibody fully modified with 3-APA, LC-MS) (Pertuzumab) [%] | % DOL 2 (fraction of antibody fully modified with 3-APA, LC-MS) (Panitumumab) [%] | Substance
1 | 81 | – | – | Activa TI microbial transglutaminase (Ajinomoto) (enzyme)
2 | – | 100 | 69 | recombinant Microbial transglutaminase from Zedira (catalog number T001) (enzyme)
